Experimental data taken from US20230331809A1 (Zymeworks, published 2023).
Changes are numbered by the printed parent chain.

Tests used:
[1] = molecular target: T1, CD3 (Cluster of Differentiation 3) on Jurkat cells and on pan T cells (human, UniProt P07766 23-207); test: flow cytometry on pan T cells (CD3), MFI
T1 construct: whole, on cells

[2] = molecular target: T1, CD3 (Cluster of Differentiation 3) on …; test: flow cytometry on human pan T cells, separate experiment (FIG. 32)
[3] = molecular target: T2, PD-L1 (Programmed death-ligand 1) on cells (UniProt Q9NZQ7 19-290); test: cell-based or functional assay
[4] = molecular target: T1, CD3 (Cluster of Differentiation 3) on …; test: cell ELISA on Jurkat cells (CD3), OD450
[5] = molecular target: T1, CD3 (Cluster of Differentiation 3) on …; test: cell ELISA on Jurkat cells (CD3), OD450; reference sample
[6] = molecular target: T1, CD3 (Cluster of Differentiation 3) on …; test: cell ELISA on Jurkat cells (CD3), OD450; remark: listed apart in the source
[7] = molecular target: T1, CD3 (Cluster of Differentiation 3) on …; test: flow cytometry on pan T cells (CD3), MFI; remark: listed apart in the source
[8] = molecular target: T2, PD-L1 (Programmed death-ligand 1) on …; test: flow cytometry on PD-L1 transfected CHO-S cells, MFI; * poor fit
[9] = molecular target: T1, CD3 (Cluster of Differentiation 3) on …; test: flow cytometry on pan T cells (CD3), MFI; sample treated with uPa; EC50 relative to v30421 -uPa
[10] = molecular target: T3, PD-1 (Programmed Cell Death Protein 1) on cells (UniProt Q15116 25-288); test: flow cytometry on PD-1 transfected CHO-S cells, MFI; * poor fit
T3 construct: whole, on cells

[11] = molecular target: T1, CD3 (Cluster of Differentiation 3) on …; test: flow cytometry on pan T cells (CD3), MFI; sample treated with uPa (variant has no mask)
[12] = molecular target: T4, CD40 (Cluster of Differentiation 40) on cells (UniProt P25942 21-277, limits assumed); test: flow cytometry on Raji cells (CD40), MFI; sample treated with uPa (variant has no cleavage site)
T4 construct: whole, on cells

[13] = molecular target: T4, CD40 (Cluster of Differentiation 40) on …; test: flow cytometry on Raji cells (CD40), MFI; EC50 relative to v32477 -uPa
[14] = molecular target: T4, CD40 (Cluster of Differentiation 40) on …; test: flow cytometry on Raji cells (CD40), MFI; sample treated with uPa; EC50 relative to v32477 -uPa
[15] = molecular target: T4, CD40 (Cluster of Differentiation 40) on …; test: cell-based or functional assay
[16] = molecular target: T4, CD40 (Cluster of Differentiation 40) on …; test: flow cytometry on Raji cells (CD40), MFI
[17] = molecular target: T5, Mesothelin (MSLN) on OVCAR3 cells (UniProt Q13421 296-598); test: flow cytometry on OVCAR3 cells (MSLN), MFI
T5 construct: whole, on cells

[18] = molecular target: T5, Mesothelin (MSLN) on OVCAR3 cells; test: flow cytometry on OVCAR3 cells (MSLN), MFI; EC50 relative to v16417
[19] = molecular target: T6, CDH3 (Cadherin 3) on JIMT1 cells (UniProt P22223 108-829, limits assumed); test: flow cytometry on JIMT1 cells (CDH3), MFI; reference sample
T6 construct: whole, on cells; also called P-cadherin

[20] = molecular target: T6, CDH3 (Cadherin 3) on JIMT1 cells; test: flow cytometry on JIMT1 cells (CDH3), MFI
[21] = molecular target: T1, CD3 (Cluster of Differentiation 3) on …; test: cell-based or functional assay
[22] = molecular target: T3, PD-1 (Programmed Cell Death Protein 1) …; test: flow cytometry on PD-1 transfected CHO-S cells, MFI; * poor fit; uncleavable variant, sample treated with uPa
[23] = molecular target: T1, CD3 (Cluster of Differentiation 3) on …; test: cell ELISA on Jurkat cells (CD3), OD450; EC50 relative to v30421
[24] = molecular target: T1, CD3 (Cluster of Differentiation 3) on …; test: cell ELISA on Jurkat cells (CD3), OD450; EC50 relative to v30421; uncleavable variant, sample treated with uPa
[25] = molecular target: T1, CD3 (Cluster of Differentiation 3) on …; test: flow cytometry on human pan T cells
[26] = molecular target: T2, PD-L1 (Programmed death-ligand 1) on …; test: flow cytometry on PD-L1 transfected CHO-S cells, MFI; * poor fit; uncleavable variant, sample treated with uPa
[27] = molecular target: T1, CD3 (Cluster of Differentiation 3) on …; test: flow cytometry on pan T cells (CD3), MFI; sample treated with uPa (uncleavable linkers)
[28] = molecular target: T1, CD3 (Cluster of Differentiation 3) on …; test: cell ELISA on Jurkat cells (CD3), OD450; uncleavable variant, sample treated with uPa
[29] = molecular target: T3, PD-1 (Programmed Cell Death Protein 1) …; test: flow cytometry on PD-1 transfected CHO-S cells, MFI; * poor fit; uncleavable variant, table and legend box disagree on the uPa treatment
[30] = molecular target: T6, CDH3 (Cadherin 3) on JIMT1 cells; test: flow cytometry on JIMT1 cells (CDH3), MFI; EC50 relative to v17214

B1: Variant 32497: Half-masked CD3 × Her2 Fab × scFv Fc, PD-1 KO attached to HC (bispecific antibody, human IgG1, kappa, L234A L235A)
heavy: not shown
light: DIQMTQSPSSLSASVGDRVTMTCSASSSVSYMNWYQQKPGKAPKRWIYDSSKLASGVPARFSGSGSGTDYTLTISSLQPEDFATYYCQQWSRNPPTFGGGTKLQITRTVAAPSVFIFPPSDEQLKSGTASVVCLLNNFYPREAKVQWKVDNALQSGNSQESVTEQDSKDSTYSLSSTLTLSKADYEKHKVYACEVTHQGLSSPVTKSFNRGEC
chain: not shown
notes: also called v32497; variant with a non-functional PD-1 domain appended to the heavy chain
- EC50 [1]: 13 nM
- fold reduction in binding vs unmasked control [2]: 6 fold
- TDCC potency on JIMT-1 target cells, fold EC50 vs unmasked v30421 [3]: 55 fold

B2: Variant 30421: CD3 × Her2 Fab × scFv Fc without mask (bispecific antibody, human IgG1, kappa, L234A L235A)
heavy: not shown
light: B1 light
chain: not shown
notes: also called v30421; unmasked variant
- EC50 [4]: 1.2 nM
- EC50 [1]: 2.1 nM
- Fold wrt WT [5]: 1 fold
- EC50 [6]: 1.2 nM
- EC50 [7]: 2.3 nM
- Fold wrt v31929 [8]: > 570 fold
- Fold wrt WT [9]: 2.3 fold
- Fold wrt v31931 [10]: > 35 fold
- EC50 [11]: 5.3 nM

B3: Variant 32478: HA PD-1:WT PD-L1 masked aCD40 Mab, uncleavable (antibody, human IgG1, kappa)
heavy: not shown
light: AFTVTVPKDLYVVEYGSNMTIECKFPVEKQLDLAALIVYWEMEDKNIIQFVHGEEDLKVQHSSYRQRARLLKDQLSLGNAALQITDVKLQDAGVYRCMISYGGADYKRITVKVNAEAAAKEAAAKDIQMTQSPSSVSASVGDRVTITCRASQGIYSWLAWYQQKPGKAPNLLIYTASTLQSGVPSRFSGSGSGTDFTLTISSLQPEDFATYYCQQANIFPLTFGGGTKVEIKRTVAAPSVFIFPPSDEQLKSGTASVVCLLNNFYPREAKVQWKVDNALQSGNSQESVTEQDSKDSTYSLSSTLTLSKADYEKHKVYACEVTHQGLSSPVTKSFNRGEC
notes: also called v32478
- EC50 [12]: 65 nM
- Fold wrt WT [13]: 42 fold
- Fold wrt WT [14]: 67 fold
- EC50, CD40 RGA, FcgRIIB CHOK1 (sample v32478 + uPa) [15]: 4.28 µg/mL
- EC50, CD40 RGA, FcgRIIB CHOK1 (sample v32478 - uPa) [15]: 5.43 µg/mL
- Fold wrt WT (EC50), CD40 RGA, FcgRIIB CHOK1 (sample v32478 + uPa) [15]: 88.2 fold
- Fold wrt WT (EC50), CD40 RGA, FcgRIIB CHOK1 (sample v32478 - uPa) [15]: 112 fold
- EC50 [16]: 41 nM

B4: Variant 31729: HA PD-1:WT PD-L1 masked aMSLN Mab, PD-L1 cleavable (not treated with uPa) (antibody, human IgG1, kappa)
heavy: not shown
light: AFTVTVPKDLYVVEYGSNMTIECKFPVEKQLDLAALIVYWEMEDKNIIQFVHGEEDLKVQHSSYRQRARLLKDQLSLGNAALQITDVKLQDAGVYRCMISYGGADYKRITVKVNAEAAAKEAAAKMSGRSANADIQMTQSPSSLSASVGDRVTITCSASSSVSYMHWYQQKSGKAPKLLIYDTSKLASGVPSRFSGSGSGTDFTLTISSLQPEDFATYYCQQWSKHPLTFGQGTKLEIKRTVAAPSVFIFPPSDEQLKSGTASVVCLLNNFYPREAKVQWKVDNALQSGNSQESVTEQDSKDSTYSLSSTLTLSKADYEKHKVYACEVTHQGLSSPVTKSFNRGEC
- EC50 [17]: 74 nM
- Fold wrt WT (EC50) [18]: 31 fold

B5: Variant 17214: Unmasked aCDH3 mAb (antibody, human IgG1, lambda)
heavy: not shown
light: GQSALTQPASVSGSPGQSITISCTGTSNDVGAYNYVSWYQQHPGKAPKLMISEVNKRPSGVSNRFSGSKSGNTASLTISGLQAEDEADYYCSSFTSGLPWVVFGGGTKLTVLGQPKAAPSVTLFPPSSEELQANKATLVCLISDFYPGAVTVAWKADSSPVKAGVETTTPSKQSNNKYAASSYLSLTPEQWKSHRSYSCQVTHEGSTVEKTVAPTECS
- Fold wrt WT [19]: 1 fold
- EC50 [20]: 0.36 nM

B6: Variant 30423: HA PD-1:WT PD-L1 masked CD3 × Her2 Fab × scFv Fc, with an uncleavable linker (bispecific antibody, human IgG1, kappa, L234A L235A)
heavy: not shown
light: AFTVTVPKDLYVVEYGSNMTIECKFPVEKQLDLAALIVYWEMEDKNIIQFVHGEEDLKVQHSSYRQRARLLKDQLSLGNAALQITDVKLQDAGVYRCMISYGGADYKRITVKVNAEAAAKEAAAKDIQMTQSPSSLSASVGDRVTMTCSASSSVSYMNWYQQKPGKAPKRWIYDSSKLASGVPARFSGSGSGTDYTLTISSLQPEDFATYYCQQWSRNPPTFGGGTKLQITRTVAAPSVFIFPPSDEQLKSGTASVVCLLNNFYPREAKVQWKVDNALQSGNSQESVTEQDSKDSTYSLSSTLTLSKADYEKHKVYACEVTHQGLSSPVTKSFNRGEC
chain: not shown
notes: also called masked, uncleavable variant
- TDCC potency (JIMT-1 cells, pan T cells), fold decrease vs unmasked 30421 [21]: 49000 fold
- Fold wrt v31931 [22]: > 35 fold
- Fold wrt WT [23]: 63 fold
- EC50 [6]: 77 nM
- Fold wrt WT [24]: 100 fold
- EC50 [7]: > 100 nM
- EC50 [8]: > 200 nM
- Fold wrt v31929 [8]: > 570 fold
- Fold wrt WT [9]: > 43 fold
- Fold wrt v31931 [10]: > 35 fold
- fold reduced binding vs unmasked control (30421) [25]: > 43 fold
- EC50 [26]: > 200 nM
- Fold wrt v31929 [26]: > 570 fold
- EC50 [27]: > 100 nM
- EC50 [28]: 120 nM

B7: Variant 30426: WT PD-1:HA PD-L1 masked CD3 × Her2 Fab × scFv Fc, with an uncleavable linker (bispecific antibody, human IgG1, kappa, L234A L235A)
heavy: not shown
light: B6 light with I37Q, Y39F, E41M, R96T, M98L, S100A, G102K
chain: not shown
- Fold wrt v31929 [26]: > 570 fold
- Fold wrt v31931 [29]: > 35 fold

B8: Variant 28662: HA PD-1:WT PD-L1 masked aCDH3 Mab, uncleavable (antibody, human IgG1, lambda)
heavy: not shown
light: AFTVTVPKDLYVVEYGSNMTIECKFPVEKQLDLAALIVYWEMEDKNIIQFVHGEEDLKVQHSSYRQRARLLKDQLSLGNAALQITDVKLQDAGVYRCMISYGGADYKRITVKVNAEAAAKEAAAKQSALTQPASVSGSPGQSITISCTGTSNDVGAYNYVSWYQQHPGKAPKLMISEVNKRPSGVSNRFSGSKSGNTASLTISGLQAEDEADYYCSSFTSGLPWVVFGGGTKLTVLGQPKAAPSVTLFPPSSEELQANKATLVCLISDFYPGAVTVAWKADSSPVKAGVETTTPSKQSNNKYAASSYLSLTPEQWKSHRSYSCQVTHEGSTVEKTVAPTECS
- Fold wrt WT [30]: 28 fold
- EC50 [20]: 9.8 nM
